Results as given in patent US20100292303A1, “GENE EXPRESSION PROFILE FOR PREDICTING OVARIAN CANCER PATIENT SURVIVAL” (priority 2007, published 2010).

B1: purified recombinant MAGP2 (microfibril associated glycoprotein 2) (ligand, UniProt Q13361 22-173, looked up)
chain: IPLGVNSQRGDDVTQATPETFTEDPNLVNDPATDETVLAVLADIAPSTDDLASLSEKNTTAECWDEKFTCTRLYSVHRPVKQCIHQLCFTSLRRMYIVNKEICSRLVCKEHEAMKDELCRQMAGLPPRRLRRSNYFRLPPCENVDLQRPNGL

What was measured:
[1] = system: ovarian cancer cells SKOV3; test: SKOV3 ovarian tumor growth and microvessel density in nude mice; type: in vivo
Protocol: The MAGP2 siRNA molecule had the following sequence: 5′-[…]-3′ (sense; SEQ ID NO: 1) and 5′-[…]-3′ (antisense; SEQ ID NO: 2). Five stable clones were selected for each group. A total of 5×10^5 cells from each clone were injected subcutaneously into the posterior neck region of 5 nude mice (6 to 8 week-old female nude mice, Charles River, Mass.). After 4 weeks, the mice were sacrificed and the tumors developed from each mouse were removed and weighed. They samples were subsequently fixed in formalin and processed for histological evaluation. MAGP2 expression in tumor tissues was evaluated using a rabbit anti-human MAGP2 antibody and the microvessel density was determined by immunolocalization of CD34+ blood vessels using a goat anti-mouse polyclonal antibody (FIG. 8A). Significant difference in the weight of the tumors between the MAGP2 siRNA and the control group were found as determined by Mann-Witney U test (FIG. 8B). A p value <0.05 was considered as significant.

[2] = system: UCI107 cells; test: UCI107 ovarian cancer cell adhesion on recMAGP2; type: cell-based; conditions: UCI107 negative for αvβ3 receptor and MAGP2
Description: (§1) Cell Lines and Culture Conditions. A224, UCI107 and OVCA429 ovarian cancer cell lines were maintained in RPMI (Invitrogen Life Technologies Inc, Carlsbad, Calif.) supplemented with 10% fetal bovine serum (Gemini Bio-Products, Woodland, Calif.) and 1% L-glutamine (Invitrogen Life Technologies).
(§2) Screening a serous ovarian cancer cell line panel for MAGP2 expression by qRT-PCR (FIG. 4A) and western blot, as well as αvβ3 receptor status through FACs analysis (FIG. 4B, select cell lines only), facilitated the selection of cell lines amenable for downstream examination. Quantitative RT-PCR was performed as described in Example 1. Among cell lines expressing MAGP2, only the SKOV3 cell line co-expressed the αvβ3 receptor. Two cell lines, A224 and OVCA429, were positive for αvβ3, yet lacked measurable levels of MAGP2. These cell lines were chosen for subsequent analyses involving the recombinant protein along with UCI107, which was negative for both the receptor and MAGP2.
(§3) The effect of recMAGP2 on adhesion was evaluated for A224 and UCI107 cell lines.

[3] = system: HUVE cells; test: HUVE cell motility assay (FluoroBlok insert, recMAGP2 as chemoattractant); type: cell-based, human; conditions: 2.5 hours, compared to medium alone, P<0.05
Protocol: Cell motility was evaluated for HUVE cells (5×10^4) by adding them to the top chamber of a BD Falcon HTS FluoroBlok insert with a PET membrane with eight […] pore (BD Biosciences) in […] of medium with 0.2% FBS. The inserts were placed into the bottom chamber wells of a 24-well plate containing medium with increasing concentrations of recombinant MAGP2. After 2.5 hr, cells that migrated through the pores of the membrane to the bottom chamber were stained with calcein […] (Molecular Probes, Eugene, Oreg.) in PBS for 30 min at 37° C. The fluorescence of migrated cells was quantified using a fluorometer set at 485 nm excitation and 530 nm emission. Parallel control experiments were performed using the MAGP2 elution buffer. HUVECs motility was mediated through αvβ3 integrin, cells were pre-treated either with an anti-αvβ3 integrin antibody (Santa Cruz Laboratories #sc-7312) or with an equal amount of IgG (ICL #RS-90G1) for 30 minutes before the addition of 100 ng/ml MAGP2. The motility assay was then performed as described above.
(§4) To determine the effect of recMAGP2 on the HUVE cell motility, recMAGP2 was used as a chemoattractant. […] Similarly, exposing HUVE cells seeded onto Matrigel matrix to reMAGP2 stimulated a 2-fold increase in invasion (P<0.05) (FIG. 5D).

[4] = target: αvβ3 integrin receptor (human, UniProt P06756 31-1048; P05106 27-788); test: cell-based or functional assay
[5] = system: OVCA429 cells; test: OVCA429 cell survival under increasing concentrations of recMAGP2; type: cell-based; conditions: 200 ng/ml recMAGP2, 96 hours; P<0.01
Description: as §1
Based on the pathway analysis, αvβ3 mediated signaling was implicated in ovarian tumor cell survival through the stimulation of critical cell-cycle checkpoint regulators. To assess this observation, OVCA429 cells were cultured under increasing concentrations of purified recMAGP2 and harvested at 24-hour intervals.

[6] = system: FAK; test: FAK phosphorylation (tyrosine 407) western blot in HUVE cells; type: cell-based, human; conditions: 100 ng/ml, 30 minutes
Protocol: Western Blot Analysis. To assess FAK phosphorylation in HUVE cells, cells were plated on 60 mm^2 dishes treated with 100 ng/ml MAGP2 recombinant protein or elute buffer control. After 30 minutes the cells were washed with 4° C. PBS and lysed in RIPA buffer containing 0.1% SDS and proteinase inhibitors. Western blotting was then performed with 5 μg of protein under denaturing conditions on a 4-12% NuPAGE gel and transferred to a PVDF membrane. The membrane was blocked in 5% nonfat milk for 1 hr at RT, probed with a 1:1000 dilution of anti-FAK[pY^407] rabbit polyclonal 1° antibody (Biosource) for 2 hr at RT. The blot was washed 3 times for 5 min with TBST and probed with a 1:2000 dilution of goat anti-rabbit HRP conjugated 2° antibody (Amersham) for 1 hr at RT. The blot was washed 3 times for 10 min with TBST and bands were detected via chemiluminscence using an ECL kit (Amersham).
Since FAK is a mediator of αvβ3 signaling, the phosphorylation status of FAK in recMAGP2 treated cells was confirmed. Using a phosphorylation specific antibody recognizing tyrosine 407, a western blot comparing phospho-FAK to total FAK was completed for both treated and untreated HUVE cell isolates.

[7] = system: HUVE cells; test: HUVE cell invasion through Matrigel; type: cell-based, human; conditions: cells seeded onto Matrigel matrix; P<0.05
Protocol: (§5) HUVE cell invasion was measured by adding cells (5×10^4) to the top chamber of a BD Falcon HTS FluoroBlok insert with a PET membrane coated with a thin layer of Matrigel. To evaluate the effect of MAGP2 on HUVE cell proliferation, 1,000 HUVECs/well were plated in 8 wells of a 96-well plate in EBM2 with 2.0% FBS. The next day the media were removed and replaced with 0.2% FBS media with elute buffer control or with recombinant MAGP2 protein at 4.5 ng/ml. After 2 days, elute control or MAGP2 was added a second time. Cell number was quantified via MTT assay.
as §4

[8] = system: HUVE cells; test: Ca2+ oscillation in HUVE cells (fluo-4/AM, confocal microscope); type: cell-based, human
Protocol: To identify the mechanism underlying the stimulation of FAK by recMAGP2, Ca^2+ oscillation was assessed in treated HUVE cells. […] This may account in part for the enhanced motility and survival of HUVE cells as described in the pathway analysis.

[9] = system: HUVE cells; test: HUVE cell survival under low serum (MTT assay); type: cell-based, human; conditions: 5 days, P<0.005
Protocol: as §5
In addition to motility and invasion, HUVE cell survival under low serum conditions was prolonged by recMAGP2.

[10] = system: A224 cells; test: A224 ovarian cancer cell adhesion on recMAGP2 coated wells; type: cell-based; conditions: plated on recMAGP2 coated wells, relative to control wells; P<0.0005
Description: as §1, §2, §3

[11] = system: HUVE cells; test: Affymetrix U133 Plus 2.0 microarray of recMAGP2 treated HUVE cells; type: cell-based, human; conditions: P<0.01 and fold-change ≧1.5; treated n=3 vs untreated n=3
Description: The marked effect of recMAGP2 on HUVE cell behavior indicated a change in cellular regulation had taken place possibly affecting gene expression. To explore the consequences of recMAGP2 induced signaling, Affymetrix® U133 Plus 2.0 microarrays were completed for a series of recMAGP2 treated (n=3) and untreated (n=3) HUVE cell isolates. A total of 274 probe sets were identified for pathway analysis in cells exposed to recMAGP2 (P<0.01 and fold-change ≧1.5) (FIG. 6A). […] Deregulation of these genes may lead to a reduction in vessel integrity permitting endothelial cell migration and neovascularization.

αvβ3 integrin receptor, sequence (P06756 31-1048, chain 1 of 2): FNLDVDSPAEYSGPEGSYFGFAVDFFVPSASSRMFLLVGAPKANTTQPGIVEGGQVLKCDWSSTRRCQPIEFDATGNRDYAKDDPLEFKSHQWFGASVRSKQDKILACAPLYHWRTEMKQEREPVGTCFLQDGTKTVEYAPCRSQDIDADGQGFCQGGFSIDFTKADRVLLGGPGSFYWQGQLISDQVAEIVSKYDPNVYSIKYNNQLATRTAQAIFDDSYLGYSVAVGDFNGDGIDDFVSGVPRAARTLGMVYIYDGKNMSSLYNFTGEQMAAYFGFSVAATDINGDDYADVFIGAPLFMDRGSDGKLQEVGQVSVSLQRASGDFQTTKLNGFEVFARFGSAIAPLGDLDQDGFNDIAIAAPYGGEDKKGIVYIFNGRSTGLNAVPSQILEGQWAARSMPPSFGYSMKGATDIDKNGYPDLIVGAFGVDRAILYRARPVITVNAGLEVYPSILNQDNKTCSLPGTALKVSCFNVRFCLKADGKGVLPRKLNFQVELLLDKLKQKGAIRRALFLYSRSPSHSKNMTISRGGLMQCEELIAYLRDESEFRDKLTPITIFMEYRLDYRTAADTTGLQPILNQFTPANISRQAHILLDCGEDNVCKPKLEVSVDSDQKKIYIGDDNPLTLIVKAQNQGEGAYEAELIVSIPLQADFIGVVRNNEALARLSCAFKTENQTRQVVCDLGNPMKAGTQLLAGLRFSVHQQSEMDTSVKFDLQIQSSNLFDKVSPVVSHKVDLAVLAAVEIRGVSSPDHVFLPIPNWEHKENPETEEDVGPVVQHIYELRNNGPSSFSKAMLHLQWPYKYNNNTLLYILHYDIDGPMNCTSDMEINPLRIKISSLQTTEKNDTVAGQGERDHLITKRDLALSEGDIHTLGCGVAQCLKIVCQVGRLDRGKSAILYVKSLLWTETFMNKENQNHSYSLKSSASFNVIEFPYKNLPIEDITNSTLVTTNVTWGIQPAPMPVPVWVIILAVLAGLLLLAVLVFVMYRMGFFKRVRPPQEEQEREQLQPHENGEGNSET
αvβ3 integrin receptor, sequence (P05106 27-788, chain 2 of 2): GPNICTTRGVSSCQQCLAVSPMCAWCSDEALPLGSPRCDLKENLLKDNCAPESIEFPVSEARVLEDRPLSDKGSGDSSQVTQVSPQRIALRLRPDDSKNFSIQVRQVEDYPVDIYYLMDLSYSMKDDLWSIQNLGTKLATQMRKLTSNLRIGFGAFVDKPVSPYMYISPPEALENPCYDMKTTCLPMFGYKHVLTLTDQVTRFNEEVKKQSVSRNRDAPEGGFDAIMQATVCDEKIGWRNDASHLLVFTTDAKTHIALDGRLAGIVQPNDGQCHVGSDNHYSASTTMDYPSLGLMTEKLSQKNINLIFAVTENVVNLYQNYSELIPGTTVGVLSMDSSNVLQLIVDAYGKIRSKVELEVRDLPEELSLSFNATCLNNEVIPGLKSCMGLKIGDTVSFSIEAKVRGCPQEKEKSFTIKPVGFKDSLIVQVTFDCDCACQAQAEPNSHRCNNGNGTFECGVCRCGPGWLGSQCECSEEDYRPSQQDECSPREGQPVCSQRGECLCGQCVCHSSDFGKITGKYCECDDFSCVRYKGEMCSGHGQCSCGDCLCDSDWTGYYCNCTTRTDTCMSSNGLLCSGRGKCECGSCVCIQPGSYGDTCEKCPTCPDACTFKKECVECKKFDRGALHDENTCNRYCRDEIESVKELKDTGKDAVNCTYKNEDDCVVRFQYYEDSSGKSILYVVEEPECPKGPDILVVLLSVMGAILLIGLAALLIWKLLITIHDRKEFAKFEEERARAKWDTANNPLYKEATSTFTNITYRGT

| Molecule | weight of the tumors ([1]; SKOV3 stably transfected, subcutaneous, nude mice, 4 weeks, vs empty vector, Mann-Witney U test p<0.05) | CD34 (microvessel density) in tumor tissues ([1]; immunolocalization of CD34+ blood vessels, FIG. 8A) | MAGP2 expression in tumor tissues ([1]; immunostaining, FIG. 8A) | UCI107 cell adhesion [2] | HUVE cell motility [3] | adhesion of HUVE cells plated on recMAGP2 [4] | OVCA429 cell survival [5] | phosphorylated FAK (tyrosine 407) versus total FAK [6] | increase in HUVE cell invasion [7] | [Ca2+]I levels ([8]; HUVE cells loaded with fluo-4/AM) | [Ca2+]I oscillation frequency ([8]; individual HUVE cells) | HUVE cell survival under low serum conditions [9] | A224 cell adhesion [10] | probe sets identified in cells exposed to recMAGP2 [11] |
| --- | --- | --- | --- | --- | --- | --- | --- | --- | --- | --- | --- | --- | --- | --- |
| MAGP2 siRNA: siRNA 5′-ACCGGTTAAACAATGCATTCAT-3′ (sense; SEQ ID NO: 1) and 5′-ATGAATGCATTGTTTAACCGGC-3′ (antisense; SEQ ID NO: 2) (listed as DNA, chemistry not fully specified) | significantly decrease the weight | decreased | decreased MAGP2 expression |  |  |  |  |  |  |  |  |  |  |  |
| B1 |  |  |  | only a modest increase in adhesion at high concentrations | increased the motility of the cells in a dose dependent manner | 2.5 fold | significant difference in survival | increase in phosphorylated FAK | 2 fold | immediate increase | 100 s/cycle | prolonged | increase in adhesion | 274 |
